Experiment [1] deals with DcuR (UniProt P0AD01). The experiment is described as follows: size exclusion chromatography with SDS-PAGE of fractions. The conditions noted are these: reference: PASC-Kin without ATP, mixed with DcuR; sites H349. For orientation: In gel filtration, larger molecules generally elute earlier.
The target of experiment [2] is OmpR (Escherichia coli) (UniProt P0AA16). The conditions noted are these: cited from earlier work.
For experiment [3], the target named is FixJ (Rhizobium meliloti) (UniProt P10958). The conditions noted are these: cited from earlier work.

The values that follow come from PMC9429925.

EnvZ cytoplasmic portion, sequence (P0AEJ4 180-450): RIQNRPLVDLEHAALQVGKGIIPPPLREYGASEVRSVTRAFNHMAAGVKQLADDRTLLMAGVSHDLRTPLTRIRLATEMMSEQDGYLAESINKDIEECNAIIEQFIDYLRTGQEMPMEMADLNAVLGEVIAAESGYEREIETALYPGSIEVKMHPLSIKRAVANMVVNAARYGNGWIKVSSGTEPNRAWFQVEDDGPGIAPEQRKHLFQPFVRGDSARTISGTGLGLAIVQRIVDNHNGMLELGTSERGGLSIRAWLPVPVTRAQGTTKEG
OmpR (Escherichia coli), sequence (P0AA16 whole entry): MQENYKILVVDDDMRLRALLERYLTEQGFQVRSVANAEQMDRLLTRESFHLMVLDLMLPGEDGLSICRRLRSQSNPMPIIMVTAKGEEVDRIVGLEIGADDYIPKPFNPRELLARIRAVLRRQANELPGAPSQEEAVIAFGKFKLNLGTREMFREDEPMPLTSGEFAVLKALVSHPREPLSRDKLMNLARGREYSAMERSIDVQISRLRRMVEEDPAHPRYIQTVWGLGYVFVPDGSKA
FixL heme-binding and kinase domains, sequence (P10955 127-505): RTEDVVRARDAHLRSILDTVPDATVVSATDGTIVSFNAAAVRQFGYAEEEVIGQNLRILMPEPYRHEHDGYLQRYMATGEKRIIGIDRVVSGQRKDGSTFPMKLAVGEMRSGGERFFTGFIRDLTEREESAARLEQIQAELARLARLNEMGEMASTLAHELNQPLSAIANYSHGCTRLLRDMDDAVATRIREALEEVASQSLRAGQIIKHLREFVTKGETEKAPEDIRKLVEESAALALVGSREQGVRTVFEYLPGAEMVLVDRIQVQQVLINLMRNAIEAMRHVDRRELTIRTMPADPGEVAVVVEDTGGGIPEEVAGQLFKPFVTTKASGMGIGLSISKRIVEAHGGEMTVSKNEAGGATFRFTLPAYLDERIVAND
FixJ (Rhizobium meliloti), sequence (P10958 whole entry): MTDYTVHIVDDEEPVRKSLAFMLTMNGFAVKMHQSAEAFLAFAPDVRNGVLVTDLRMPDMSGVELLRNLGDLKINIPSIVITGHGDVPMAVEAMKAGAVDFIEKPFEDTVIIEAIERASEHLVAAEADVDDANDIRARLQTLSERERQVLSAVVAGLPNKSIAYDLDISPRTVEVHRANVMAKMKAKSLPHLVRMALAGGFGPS

Regarding “DcuS (cytoplasmic part: PASC-Kin) PASC-Kin, 212-539 (from UniProt P0AEC8) PASC-Kin pre-incubated with ATP, mixed with DcuR”, in experiment [1], the “other: mol DcuR per mol PASC-Kin in complex peak” value is on record as “stronger; reference approximately 0.11”.

Broadly, the Kd is the constant that tells how readily two partners part at equilibrium. On to “EnvZ cytoplasmic portion (from UniProt P0AEJ4)”, for which the Kd in experiment [2] is 0.425 µM.

On to “FixL heme-binding and kinase domains (from UniProt P10955)”, for which the equilibrium dissociation constant (Kd) in experiment [3] is 4 µM.
